Earlier results on one substance are cited in article PMC10404681, “Intrinsic catalytic properties of histone H3 lysine-9 methyltransferases preserve monomethylation levels under low S-adenosylmethionine” (The Journal of Biological Chemistry, 2023).

This data set concerns the target histone H3 peptide (Homo sapiens) (UniProt P68431).

Chain of EHMT1/EHMT2 heterodimer (Q9H9B1 2-1298): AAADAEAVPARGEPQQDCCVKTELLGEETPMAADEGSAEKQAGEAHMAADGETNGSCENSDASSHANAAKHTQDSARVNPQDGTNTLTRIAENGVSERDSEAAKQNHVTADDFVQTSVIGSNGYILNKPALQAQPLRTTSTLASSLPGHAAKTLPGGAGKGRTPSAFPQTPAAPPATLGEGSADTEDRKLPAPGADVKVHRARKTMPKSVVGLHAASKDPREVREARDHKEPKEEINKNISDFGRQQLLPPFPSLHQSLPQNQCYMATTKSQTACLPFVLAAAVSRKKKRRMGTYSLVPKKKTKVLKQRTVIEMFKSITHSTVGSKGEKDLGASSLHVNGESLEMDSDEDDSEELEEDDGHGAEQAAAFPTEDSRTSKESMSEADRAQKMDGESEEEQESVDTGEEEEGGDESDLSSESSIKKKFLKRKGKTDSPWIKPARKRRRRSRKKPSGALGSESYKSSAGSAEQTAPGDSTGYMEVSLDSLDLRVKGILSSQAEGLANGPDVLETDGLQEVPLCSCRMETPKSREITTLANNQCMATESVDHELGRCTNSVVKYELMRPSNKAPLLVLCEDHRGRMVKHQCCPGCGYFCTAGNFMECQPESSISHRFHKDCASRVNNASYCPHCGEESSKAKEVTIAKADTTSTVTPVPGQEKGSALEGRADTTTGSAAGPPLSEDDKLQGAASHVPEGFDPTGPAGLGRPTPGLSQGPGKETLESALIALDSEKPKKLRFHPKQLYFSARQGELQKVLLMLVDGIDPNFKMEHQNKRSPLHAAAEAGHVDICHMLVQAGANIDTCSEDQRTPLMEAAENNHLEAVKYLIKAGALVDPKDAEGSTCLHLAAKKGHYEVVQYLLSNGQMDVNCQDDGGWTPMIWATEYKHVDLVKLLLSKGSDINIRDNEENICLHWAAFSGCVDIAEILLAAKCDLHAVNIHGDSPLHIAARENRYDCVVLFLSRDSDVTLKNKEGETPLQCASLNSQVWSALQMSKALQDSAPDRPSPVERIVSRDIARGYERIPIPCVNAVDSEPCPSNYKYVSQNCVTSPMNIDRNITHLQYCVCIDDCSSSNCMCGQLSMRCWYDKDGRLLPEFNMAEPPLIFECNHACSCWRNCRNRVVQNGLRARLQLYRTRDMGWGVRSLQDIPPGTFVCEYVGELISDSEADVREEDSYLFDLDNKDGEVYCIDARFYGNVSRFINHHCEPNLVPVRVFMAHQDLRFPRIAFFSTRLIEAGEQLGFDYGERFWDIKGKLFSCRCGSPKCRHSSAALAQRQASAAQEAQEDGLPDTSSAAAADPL
Chain of EHMT1/EHMT2 heterodimer (Q96KQ7 2-1210, further chain): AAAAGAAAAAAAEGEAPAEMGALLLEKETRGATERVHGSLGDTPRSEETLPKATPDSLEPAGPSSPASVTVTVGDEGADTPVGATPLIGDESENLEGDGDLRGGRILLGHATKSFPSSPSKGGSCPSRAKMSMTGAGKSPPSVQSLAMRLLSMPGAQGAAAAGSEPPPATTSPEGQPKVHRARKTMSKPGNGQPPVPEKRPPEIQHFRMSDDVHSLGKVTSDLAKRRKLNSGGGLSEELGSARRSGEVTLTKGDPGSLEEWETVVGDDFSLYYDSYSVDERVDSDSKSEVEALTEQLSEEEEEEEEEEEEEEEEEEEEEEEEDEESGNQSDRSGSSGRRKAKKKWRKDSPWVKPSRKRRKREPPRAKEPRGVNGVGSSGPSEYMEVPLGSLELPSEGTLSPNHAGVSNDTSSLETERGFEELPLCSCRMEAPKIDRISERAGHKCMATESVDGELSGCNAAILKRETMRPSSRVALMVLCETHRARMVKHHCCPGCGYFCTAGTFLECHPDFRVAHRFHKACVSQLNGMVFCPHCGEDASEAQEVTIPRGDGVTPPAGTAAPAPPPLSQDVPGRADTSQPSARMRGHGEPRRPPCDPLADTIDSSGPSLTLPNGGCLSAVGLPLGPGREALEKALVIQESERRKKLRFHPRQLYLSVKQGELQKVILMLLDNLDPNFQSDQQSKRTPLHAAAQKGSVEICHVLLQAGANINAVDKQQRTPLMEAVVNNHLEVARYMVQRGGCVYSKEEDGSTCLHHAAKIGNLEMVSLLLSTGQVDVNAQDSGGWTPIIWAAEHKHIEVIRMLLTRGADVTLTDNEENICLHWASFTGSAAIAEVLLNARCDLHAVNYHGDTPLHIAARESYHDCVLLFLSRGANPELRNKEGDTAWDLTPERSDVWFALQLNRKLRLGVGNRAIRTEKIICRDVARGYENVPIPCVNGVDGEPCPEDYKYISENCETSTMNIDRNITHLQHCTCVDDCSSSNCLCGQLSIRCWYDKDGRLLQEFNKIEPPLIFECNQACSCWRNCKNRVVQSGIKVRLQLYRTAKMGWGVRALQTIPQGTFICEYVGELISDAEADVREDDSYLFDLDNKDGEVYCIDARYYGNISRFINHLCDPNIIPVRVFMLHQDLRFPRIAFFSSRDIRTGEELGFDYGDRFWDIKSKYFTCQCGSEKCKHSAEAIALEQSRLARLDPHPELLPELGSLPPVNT

Usually Kd stands for the concentration at which binding is half-saturated. For the substance “EHMT1/EHMT2 heterodimer (from UniProt Q9H9B1)”, the Kd was 7.35 µM.
